This passage reports derepression of the Gal4 pTK-Luc reporter (compare G4-SirT1 with G4-ΔN-SirT1) results from US20070065890A1, “Method for promoting formation of facultative heterochromatin” (priority 2005, published 2007).

In this assay the target is endogenous histone H1. The experiment in a line: cell-based or functional assay.

In turn, “deletion mutant G4-ΔNSirT1 (Δ(1-268)) (from UniProt P04386 1-147)” yielded a derepression of the Gal4 pTK-Luc reporter (compare G4-SirT1 with G4-ΔN-SirT1) of 20%.
